According to patent US20230218721A1, “INCRETIN ANALOGUE, PREPARATION METHOD THEREFOR, AND USE THEREOF” (ZHEJIANG DOER BIOLOGICS CO., LTD., priority 2020, published 2023):

Molecular target: human glucagon-like peptide-1 receptor (GLP-1R) (human (printed as 'Humanized')) (UniProt P43220)
Assay: cell-based or functional assay

Chain of human glucagon-like peptide-1 receptor (GLP-1R) (human (printed as 'Humanized')) (P43220 24-463): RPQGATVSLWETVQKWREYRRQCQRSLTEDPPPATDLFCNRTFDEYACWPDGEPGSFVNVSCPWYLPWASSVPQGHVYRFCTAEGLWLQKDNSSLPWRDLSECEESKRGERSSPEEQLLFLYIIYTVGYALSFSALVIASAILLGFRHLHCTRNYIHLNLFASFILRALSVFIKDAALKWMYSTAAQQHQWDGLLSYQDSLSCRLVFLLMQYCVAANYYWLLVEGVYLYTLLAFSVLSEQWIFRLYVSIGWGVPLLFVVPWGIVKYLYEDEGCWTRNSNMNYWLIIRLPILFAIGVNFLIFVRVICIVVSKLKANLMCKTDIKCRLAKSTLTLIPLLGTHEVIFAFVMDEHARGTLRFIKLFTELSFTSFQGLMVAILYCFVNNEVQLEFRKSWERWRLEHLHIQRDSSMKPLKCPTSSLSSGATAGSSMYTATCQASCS

GLP-1R agonist activity (EC50, nM): 0.01 nM
Substance: Dulaglutide (Trade name: Trulicity) (Fc fusion)
